Measured values reported in publication doi:10.1101/2025.08.30.673307 (bioRxiv, 2025).

Target: the molecule itself
Experiment: cryo-EM structure

B1: stomatin (STOM) fused at its C terminus with a Twin-Strep tag (natural protein, human, UniProt P27105 1-288, looked up)
chain: MAEKRHTRDSEAQRLPDSFKDSPSKGLGPCGWILVAFSFLFTVITFPISIWMCIKIIKEYERAIIFRLGRILQGGAKGPGLFFILPCTDSFIKVDMRTISFDIPPQEILTKDSVTISVDGVVYYRVQNATLAVANITNADSATRLLAQTTLRNVLGTKNLSQILSDREEIAHNMQSTLDDATDAWGIKVERVEIKDVKLPVQLQRAMAAEAEASREARAKVIAAEGEMNASRALKEASMVITESPAALQLRYLQTLTTIAAEKNSTIVFPLPIDMLQGIIGAKHSHLG
- stoichiometry N: 16 subunits
